Reference: US20220119534A1 (DRAGONFLY THERAPEUTICS, published 2022)
Changes are numbered by the printed parent chain.

T1: Human CLEC12A expressed on cells (Ba/F3-hCLEC12A, PL21, HL60) (human, UniProt Q5QGZ9 1-265)
T1 sequence: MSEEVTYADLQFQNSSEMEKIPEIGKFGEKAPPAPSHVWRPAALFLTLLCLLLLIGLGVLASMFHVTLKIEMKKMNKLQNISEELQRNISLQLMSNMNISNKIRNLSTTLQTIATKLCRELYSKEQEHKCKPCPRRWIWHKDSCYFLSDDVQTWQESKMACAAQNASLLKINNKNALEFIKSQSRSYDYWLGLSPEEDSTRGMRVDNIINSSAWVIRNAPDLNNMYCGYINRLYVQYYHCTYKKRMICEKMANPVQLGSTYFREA

T2: human CLEC12A expressed on cells (human, UniProt Q5QGZ9 1-265)
T2 construct: Transduced isogenic cells or endogenous expression on AML cells; also called RMA-hCLEC12A; Ba/F3-hCLEC12A
T2 sequence: T1 sequence

T3: recombinant human CLEC12A-His (human, UniProt Q5QGZ9 65-265)
T3 construct: also called hCLEC12A-His; hCLEC12A
T3 sequence: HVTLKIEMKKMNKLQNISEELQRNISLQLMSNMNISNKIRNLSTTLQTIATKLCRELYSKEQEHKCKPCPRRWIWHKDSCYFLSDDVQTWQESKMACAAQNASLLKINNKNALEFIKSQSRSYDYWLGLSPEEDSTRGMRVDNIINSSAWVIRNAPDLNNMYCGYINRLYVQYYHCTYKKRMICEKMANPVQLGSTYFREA

B1: AB0037 mAb (Humanized 1602 anti-CLEC12A mAb) (antibody, V domains shown)
VH: QLQLQESGPGLVKPSETLSLTCTVSGFSLTNYGLHWIRQPPGKGLEWIGVIWSGGKTDYNPSLKSRVTISKDTSKNQFSLKLSSVQAADTAVYYCAKYDYDDSLDYWGQGTLVTVSS
VL: DIQMTQSPSSLSASVGDRVTITCHASQNINFWLSWYQQKPGKAPKLLIYEASNLHTGVPSRFSGSGSGTRFTLTISSLQPEDIATYYCQQSHSYPLTFGGGTKLEIK
B2: AB0186 (other)
chain: DIQMTQSPSSLSASVGDRVTITCKASQDIYNYLSWFQQKPGKAPKPLIYRANILVSGVPSRFSGSGSGQDYTFTISSLQPEDIATYYCLQFDAFPFTFGCGTKLEIKGGGGSGGGGSGGGGSGGGGSEVQLVESGGGVVQPGGSLRLSCAASGFTFNAFGMHWVRQAPGKCLEWVAFISSGSTSIYYANTVKGRFTISRDNSKNTLYLQMNSLRAEDTAVYYCARDGYPTGGAMDYWGQGTSVTVSSGSDKTHTCPPCPAPELLGGPSVFLFPPKPKDTLMISRTPEVTCVVVDVSHEDPEVKFNWYVDGVEVHNAKTKPREEQYNSTYRVVSVLTVLHQDWLNGKEYKCKVSNKALPAPIEKTISKAKGQPREPRVYTLPPCRDELTKNQVSLTCLVKGFYPSDIAVEWESNGQPENNYKTTPPVLVSDGSFTLYSKLTVDKSRWQQGNVFSCSVMHEALHNHYTQKSLSLSPG
heavy: EVQLVESGGGLVKPGGSLRLSCAASGFTFSSYSMNWVRQAPGKGLEWVSSISSSSSYIYYADSVKGRFTISRDNAKNSLYLQMNSLRAEDTAVYYCARGAPIGAAAGWFDPWGQGTLVTVSSASTKGPSVFPLAPSSKSTSGGTAALGCLVKDYFPEPVTVSWNSGALTSGVHTFPAVLQSSGLYSLSSVVTVPSSSLGTQTYICNVNHKPSNTKVDKKVEPKSCDKTHTCPPCPAPELLGGPSVFLFPPKPKDTLMISRTPEVTCVVVDVSHEDPEVKFNWYVDGVEVHNAKTKPREEQYNSTYRVVSVLTVLHQDWLNGKEYKCKVSNKALPAPIEKTISKAKGQPREPQVCTLPPSRDELTENQVSLTCLVKGFYPSDIAVEWESNGQPENNYKTTPPVLDSDGSFFLYSWLTVDKSRWQQGNVFSCSVMHEALHNHYTQKSLSLSPG
light: DIQMTQSPSSVSASVGDRVTITCRASQGISSWLAWYQQKPGKAPKLLIYAASSLQSGVPSRFSGSGSGTDFTLTISSLQPEDFATYYCQQGVSFPRTFGGGTKVEIKRTVAAPSVFIFPPSDEQLKSGTASVVCLLNNFYPREAKVQWKVDNALQSGNSQESVTEQDSKDSTYSLSSTLTLSKADYEKHKVYACEVTHQGLSSPVTKSFNRGEC
notes: As AB0185
B3: AB0189 (other)
chain: B2 chain with Q3K, F73L
heavy: B2 heavy
light: B2 light
notes: As AB0185

Columns and labels:
[1] = biological target: T1, Human CLEC12A expressed on cells …; assay: cell-based or functional assay
[2] = biological target: T2, human CLEC12A expressed on cells; assay: flow cytometry, HL60
[3] = biological target: T3, recombinant human CLEC12A-His; assay: SPR screening, semi-purified
[4] = biological target: T2, human CLEC12A expressed on cells; assay: flow cytometry, hCLEC12A+ Ba/F3

| Binder | % Max, ADCP activity of M0 macrophages against PL21 cells [1] [%] | EC50, ADCP activity of M0 macrophages against PL21 cells [1] [pM] | EC50 [2] [pM] | Max binding MFI [2] [MFI] | Kd [3] [pM] | koff [3] [s⁻¹] | kon [3] [M⁻¹ s⁻¹] | EC50 [4] [pM] | Max binding MFI [4] [MFI] |
| --- | --- | --- | --- | --- | --- | --- | --- | --- | --- |
| B1 | 11 | 50 | – | – | – | – | – | – | – |
| B2 | – | – | 500 | 412 | 1040 | 0.00117 | 1.12e+06 | 700 | 8160 |
| B3 | – | – | 700 | 420 | 1210 | 0.00127 | 1.04e+06 | 1300 | 8760 |
